B1: High mobility group protein B1, P63159 (parent)
chain: MGKGDPKKPRGKMSSYAFFVQTCREEHKKKHPDASVNFSEFSKKCSERWKTMSAKEKGKFEDMAKADKARYEREMKTYIPPKGETKKKFKDPNAPKRPPSAFFLFCSEYRPKIKGEHPGLSIGDVAKKLGEMWNNTAADDKQPYEKKAAKLKEKYEKDIAAYRAKGKPDAAKKGVVKAEKSKKKKEEEDDEEDEEDEEEEEEEEDEDEEEDDDDE

“And” between values parts separate entries of the source, which are not always exact repeats. Equal entries are not always repeated.

The variants in the data set derive from B1. As to conditions: Rattus norvegicus, pH 7, Thermal, CD, HEPES 10 mM, structure 1HME, whole UniProt chain shown; for unfolding free energy / ddG of mutation (higher = less stable): 20 °C.

This note sets out measurements from FireProtDB (doi:10.1093/protein/15.10.817).

By Tm is commonly meant the temperature at which the thermal transition is half complete. For N135H D140H, the “ddG of mutation (higher = less stable)” value was 1.3 kcal/mol and 1.2 kcal/mol; the unfolding free energy is 1.4 kcal/mol and 1.5 kcal/mol; the Tm was 34.3 °C and 35.3 °C; the “change of melting temperature, mutant - wild type (higher = more stable)” value (from here on “change of melting temperature, mutant”) is -6.3 °C and -5.3 °C. The “unfolding enthalpy (van 't Hoff)” value was 33.1 kcal/mol and 31.5 kcal/mol. Moreover, under “NiSO4 1 mM”, the unfolding free energy was 1.8 kcal/mol and 2.46 kcal/mol.

As for S121H, the “ddG of mutation (higher = less stable)” value was 1.85 kcal/mol; the unfolding free energy was found to be 0.85 kcal/mol; the Tm came out at 30.4 °C; the “change of melting temperature, mutant” value is -10.2 °C. Besides, the “unfolding enthalpy (van 't Hoff)” value was 28.2 kcal/mol. For the same variant, under “NiSO4 1 mM”, the “ddG of mutation (higher = less stable)” value came out at 1.5 kcal/mol; the unfolding free energy is 1.2 kcal/mol; the Tm amounted to 34.4 °C; the “change of melting temperature, mutant” value is -6.2 °C. Also, for the setting “NiSO4 1 mM”, the “unfolding enthalpy (van 't Hoff)” value is 31.4 kcal/mol.

In the case of N135H D139H, the unfolding free energy was 1.69 kcal/mol and 2.42 kcal/mol and 1.67 kcal/mol; the Tm is 39 °C and 36.3 °C; the “unfolding enthalpy (van 't Hoff)” value is 35.8 kcal/mol and 32.3 kcal/mol. Further, the unfolding free energy (NiSO4 1 mM) was 1.74 kcal/mol and 4.04 kcal/mol and 4.32 kcal/mol.

For D139H, the “ddG of mutation (higher = less stable)” value is -0.27 kcal/mol; the unfolding free energy came to 2.97 kcal/mol; the Tm was 41.1 °C; the “change of melting temperature, mutant” value is 0.5 °C. Moreover, the “unfolding enthalpy (van 't Hoff)” value is 38.3 kcal/mol. Besides, under “NiSO4 1 mM”, the “ddG of mutation (higher = less stable)” value was -0.97 kcal/mol; the unfolding free energy came out at 3.67 kcal/mol; the Tm is 46.8 °C; the “change of melting temperature, mutant” value was found to be 6.2 °C. For the same variant, the “unfolding enthalpy (van 't Hoff)” value (NiSO4 1 mM) was 41 kcal/mol.

As to G123H, the “ddG of mutation (higher = less stable)” value turned out to be 0.34 kcal/mol and the unfolding free energy stood at 2.36 kcal/mol. Moreover, for the setting “NiSO4 1 mM”, the “ddG of mutation (higher = less stable)” value was -0.47 kcal/mol; the unfolding free energy came out at 3.17 kcal/mol; the Tm turned out to be 44.9 °C; the “change of melting temperature, mutant” value is 4.3 °C. Also, where the note is “NiSO4 1 mM”, the “unfolding enthalpy (van 't Hoff)” value was 36.8 kcal/mol.

For D140H, the Tm was found to be 38.2 °C; the “change of melting temperature, mutant” value is -2.4 °C; the “unfolding enthalpy (van 't Hoff)” value was found to be 33 kcal/mol. In addition, under “NiSO4 1 mM”, the “ddG of mutation (higher = less stable)” value was -0.95 kcal/mol; the unfolding free energy was 3.65 kcal/mol; the Tm is 46.8 °C; the “change of melting temperature, mutant” value was 6.2 °C. In addition, where the note is “NiSO4 1 mM”, the “unfolding enthalpy (van 't Hoff)” value was 36.8 kcal/mol.

Take I122H: the “ddG of mutation (higher = less stable)” value stood at 1.23 kcal/mol; the unfolding free energy is 1.74 kcal/mol; the Tm worked out at 36.2 °C; the “change of melting temperature, mutant” value is -4.4 °C. Besides, the “unfolding enthalpy (van 't Hoff)” value is 33.6 kcal/mol. In addition, under “NiSO4 1 mM”, the “ddG of mutation (higher = less stable)” value was determined as 0 kcal/mol; the unfolding free energy was determined as 2.7 kcal/mol; the midpoint of thermal melting (Tm) was found to be 41.9 °C; the “change of melting temperature, mutant” value was found to be 1.3 °C. Moreover, where the note is “NiSO4 1 mM”, the “unfolding enthalpy (van 't Hoff)” value was determined as 34.2 kcal/mol.
